In PMC4570195, “Self-sorting heterodimeric coiled coil peptides with defined and tuneable self-assembly properties” (Scientific Reports, 2015):
Cy5 = fluorescent dye, coupled as Cy5-NHS

T1: EV-Cy5 (Cy5 at the N-terminus (Cy5-NHS used instead of acetic anhydride))
T1 construct: de novo designed 28-residue coiled coil peptide; also called EV modified at the N-terminus with Cy5; source: synthetic peptide (solid phase, Fmoc), purified by reverse phase HPLC
T1 peptide: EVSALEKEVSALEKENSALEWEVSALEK

T2: KV (N-terminal acetylation)
T2 construct: de novo designed 28-residue coiled coil peptide, four heptads (gabcdef); also called KV peptide; source: synthetic peptide (solid phase, Fmoc), purified by reverse phase HPLC
T2 peptide: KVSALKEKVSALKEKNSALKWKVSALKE

B1: KI (peptide)
peptide: Ac-KIAALKEKIAALKEKNAALKWKIAALKE-NH2
notes: de novo designed 28-residue coiled coil peptide, four heptads (gabcdef); also called KI peptide; source: synthetic peptide (solid phase, Fmoc), purified by reverse phase HPLC

Legend:
EV-Cy5 [1] = test: Fluorescence of EV-Cy5 upon addition of EI and KI
Excerpt: To further experimentally verify that the peptides undergo thermodynamic self-sorting we modified EV at the N-terminus with a fluorescent dye (Cy5). Although not considered very environmentally sensitive, cyanine dyes tethered to the terminus of single-stranded DNA display significant changes in fluorescence quantum yield, emission lifetime, and fluorescence anisotropy decay upon hybridization with a complementary DNA strand[34][35]. […] This change in binding partner was also supported by simulations (Fig. 6b). The smaller amount of monomeric EV-Cy5 seen in the experiment after addition of EI is presumably an effect of the kinetics involved in the exchange of partners in the heterodimer. The simulations were run until equilibrium whereas the experimental data was acquired after 30 minutes incubation and the exchange was likely not fully completed within this time frame.
Figure 6 (a) Fluorescence spectra and (b) change in normalized intensity at 667 nm for EV-Cy5 upon addition of EI and KI. Addition of the complimentary peptide KI, thus forming EVKI dimers, results in an increase in fluorescence intensity. Subsequent addition of EI reduces the fluorescence intensity due to formation of EIKI dimers, leaving free EV-Cy5. […]
Fmoc-protected amino acids were purchased from Iris Biotech GmbH. […] Peptide concentrations were determined by UV absorbance (ε280(Trp) = 5690 M^−1 cm^−1). […]

EV-Cy5 [2] = target: T1, EV-Cy5; test: fluorescence emission intensity of a Cy5-labelled peptide; EV-Cy5 5 μM, KI 5 μM added, then EI 5 μM; 30 minutes incubation; intensity at 667 nm; conditions: both partners purified
KI [3] = target: B1; test: circular dichroism, thermal denaturation; Kd at 75 °C, as used for the self-sorting simulations; conditions: both partners purified
KV [4] = target: T2, KV; test: circular dichroism, thermal denaturation; thermal denaturation at different peptide monomer concentrations, Tm related to Kd; Kd at 20 °C; 10 mM phosphate buffer pH 7; conditions: both partners purified
KI [5] = target: B1; test: as above; conditions: both partners purified
KV [6] = target: T2, KV; test: method of continuous variation by circular dichroism; molar ratio of each monomer varied, ellipticity at 222 nm measured; conditions: both partners purified
KI [7] = target: B1; test: as above; conditions: both partners purified
KV [8] = target: T2, KV; test: circular dichroism, thermal denaturation; Kd at 75 °C, as used for the self-sorting simulations; conditions: both partners purified

Molecule | change in fluorescence emission intensity, EI added prior to KI (EV-Cy5 [1]; EI added to EV-Cy5 prior to KI, otherwise identical conditions) | change in fluorescence emission intensity (EV-Cy5 [1]; EV-Cy5 5 μM, KI 5 μM then EI 5 μM, 30 min incubation, 667 nm, PB pH 7) | binding result (EV-Cy5 [2]) | Kd (KI [3]) [nM] | Kd (KV [4]) [nM] | Kd (KI [5]) [nM] | stoichiometry N (KV [6]) | stoichiometry N (KI [7]) | Kd (KV [8]) [nM]
EV-Cy5: EV modified at the N-terminus with a fluorescent dye (Cy5) (Cy5-EVSALEKEVSALEKENSALEWEVSALEK-NH2) | a slight decrease in fluorescence intensity | a drop in emission intensity, close to the original intensity of the monomeric EV-Cy5 |  |  |  |  |  |  | 
B1 |  |  | binds |  |  |  |  |  | 
Ac-EVSALEKEVSALEKENSALEWEVSALEK-NH2 (de novo designed 28-residue coiled coil peptide, four heptads (gabcdef); also called EV peptide; source: synthetic peptide (solid phase, Fmoc), purified by reverse phase HPLC) [EV] |  |  |  | > 200 | 1400 | 85 | 1 | 1 | 
Ac-EIAALEKEIAALEKENAALEWEIAALEK-NH2 (de novo designed 28-residue coiled coil peptide, four heptads (gabcdef); also called EI peptide; source: synthetic peptide (solid phase, Fmoc), purified by reverse phase HPLC) [EI] |  |  |  |  | 72 | < 0.1 | 1 | 1 | > 200
